Data on 13 molecules can be found in patent US20170157165, “APTAMER FOR FGF2 AND USE THEREOF” (RIBOMIC INC., published 2017).

A word on the IC50: it is the concentration needed to halve the response being measured. A high value points to a need for much substance.

Substitutions are numbered along the chain they refer to.

To fix the notation:
B1: aptamer ID 4(4) (ssRNA)
RNA: GGAUACUAGGGCAUUAAUGUUACCAGUGUAGUCC
modifications: 2'-F at U7,G11,U15,U20,G26,U27,U29; 2'-OH at G28; all others 2'-OMe; PS between G28 and U29; 3' idT
B2: aptamer ID 4(3) (ssRNA)
RNA: B1 RNA
modifications: 2'-F at U7,G11,U15,U20,U27,U29; 2'-OH at G26,G28; all others 2'-OMe; PS between U27 and G28; 3' idT
B3: aptamer ID 8 (ssRNA)
RNA: CGGAUACUAGGGCAUUAAUGUUACCAGUGUAGUCCG
modifications: 2'-F at U8,U16,U21,U28,U30; 2'-OH at G12,G27,G29; all others 2'-OMe; 5' NH2; 3' idT
B4: aptamer ID 9 (ssRNA)
RNA: B3 RNA with G2C, C35G
modifications: 2'-F at U8,U16,U21,U28,U30; 2'-OH at G12,G27,G29; all others 2'-OMe; 5' NH2; 3' idT
B5: aptamer ID 3(21) (ssRNA)
RNA: B3 RNA with C1G, G36C
modifications: 2'-F at U8,U16,U21,U28,U30; 2'-OH at G12,G27,G29; all others 2'-OMe; 5' PEG 40K (GL2-400TS)-C6; 3' idT

T1 sequence (P09038 135-288, one chain of several): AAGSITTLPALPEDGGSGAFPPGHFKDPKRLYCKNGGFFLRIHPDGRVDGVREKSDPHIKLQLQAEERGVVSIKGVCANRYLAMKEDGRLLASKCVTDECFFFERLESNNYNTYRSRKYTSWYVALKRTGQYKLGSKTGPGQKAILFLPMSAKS

The target in one data set is T1, FGF2 (Homo sapiens, UniProt P09038 P09038:135-288). The data set can be described thus: cell_activity; HUVEC proliferation, FGF2 0.58 nM. The settings on record: tags: Peprotech. As to the method:
(§1) Human umbilical vein endothelial cells (HUVEC) were seeded in a 96 well flat bottom plate at 5×10³ cells per well, and cultured overnight using a medium EGM-2 Bullet Kit for endothelial cells (CC-3162 manufactured by Lonza) containing 2% fetal bovine serum and growth factors. Thereafter, the medium was discarded, the cells were washed twice with PBS buffer, and a mixture of the aptamer shown by aptamer ID 3(21) (5, 2.5, 1, 0.5 nM) and FGF2 (final concentration 0.5 nM), dissolved in a medium exclusively for endothelial cells containing 2% fetal bovine serum, was added. After 72 hr, viable cell number was examined using Cell Counting Kit-8. For the measurement of absorbance, a microplate reader (450 nm) was used. One sample was measured at n=3. As a positive control, anti-FGF2 antibody Anti-FGF, basic (Ab-3) Mouse mAb (3H3) (manufactured by Calbiochem) were used. With the OD value per well obtained by the addition of FGF2 alone and culture of the cells for 3 days as inhibitory activity 0%, and that of the cell obtained by FGF2 free culture for 3 days as inhibitory activity 100%, the inhibitory activity of the aptamer was calculated from the OD value per well obtained by culturing with the addition of a mixture of FGF2 and the aptamer. As a result, it was shown that the aptamer shown by aptamer ID 3(21) has a high inhibitory activity against FGF2.
By a method similar to the above except that the 96 well flat bottom plate was changed to a collagen-coated one, the activity of various aptamers was evaluated. The concentration of FGF2 added was 0.58 nM. As a negative control RNA, Macugen (registered trade mark) sequence without addition of PEG, and with C6 modification of the 5′-terminal and idT modification of the 3′-terminal was used.
Molecule GGAUACUAGGGCAUUAAUGUUACCAGUGUAGUCC (ssRNA, 2'-F at U7,G11,U15,U20,U27,U29; 2'-OH at G26,G28; all others 2'-OMe; 3' idT) [aptamer ID 4(1)] returned a half-maximal inhibitory concentration (IC50) of 3.8 nM.

For the molecule GGAUACUAGGGCAUUAAUGUUACCAGUGUAGUCC (ssRNA, 2'-F at U7,G11,U15,U20,G26,U27,U29; 2'-OH at G28; all others 2'-OMe; 3' idT) [aptamer ID 4(2)], the midpoint of inhibition, the IC50, lay at 5.1 nM. The IC50 values of the last two molecules are within 1.5-fold of each other. Molecule B1 returned an IC50 of 4.5 nM. On to B2, for which 4.6 nM corresponded to half-maximal inhibition (IC50).

As for AGGGAUACUAGGGCAUUAAUGUUACCAGUGUAGUCCC (ssRNA, 2'-F at U9,U17,U22,U29,U31; 2'-OH at G13,G28,G30; all others 2'-OMe; 3' idT) [aptamer ID 6], inhibition was half-maximal at 3.1 nM (IC50). On to GGGGAUACUAGGGCAUUAAUGUUACCAGUGUAGUCCCC (ssRNA, 2'-F at U9,U17,U22,U29,U31; 2'-OH at G13,G28,G30; all others 2'-OMe; 3' idT) [aptamer ID 5], for which the IC50 stood at 2.6 nM.

A further data set concerns the target T1, FGF2. Kind of data set: cell_activity; HUVEC proliferation. The following applies: tags: Peprotech. On the procedure: as §1
By a method similar to that in Example 5, the inhibitory activity of the aptamers shown by aptamer IDs 8-12 was measured.
For the molecule B3, 5.6 nM corresponded to half-maximal inhibition (IC50). On the same count and under the same terms, next, GGGAUACUAGGGCCUUAAGGUUACCAGUGUAGUCCC (ssRNA, 2'-F at U8,U16,U21,U28,U30; 2'-OH at G12,G27,G29; all others 2'-OMe) [aptamer ID 11]: 13 nM; GGGAUACUAGGGCGUUAACGUUACCAGUGUAGUCCC (ssRNA, 2'-F at U8,U16,U21,U28,U30; 2'-OH at G12,G27,G29; all others 2'-OMe) [aptamer ID 10]: 4.9 nM; GGGAUACUAGGGCAUUUAUGUUACCAGUGUAGUCCC (ssRNA, 2'-F at U8,U16,U21,U28,U30; 2'-OH at G12,G27,G29; all others 2'-OMe) [aptamer ID 12]: 2.3 nM.

GGGAUACUAGGGCAUUAAUGUUACCAGUGUAGUCCC (ssRNA, 2'-F at U8,U16,U21,U28,U30; 2'-OH at G12,G27,G29; all others 2'-OMe; 3' idT) [aptamer ID 3(19)]: it took 3.4 nM to reach half-maximal inhibition (IC50). The IC50 values of the last two molecules are within 1.5-fold of each other. Same read-out and setting: next, B4: 3.7 nM.

The target of another data set is T1, FGF2. The data set can be described thus: inhibition; SPR inhibition of FGF2-FGFR1alpha(IIIc); each 0.1 uM. The following applies: tags: Peprotech. On the procedure: BIAcore2000 manufactured by BIAcore was used for the measurement. As directed in BIAcore Company's protocol, Protein A (21181, manufactured by PIERCE) was immobilized on a CM5 sensor chip. About 1,000 RU of human FGFR1α (IIIc), R2α (IIIc), R3 (IIIc), R4 (manufactured by R&D Systems) fused with the Fc portion of IgG (manufactured by R&D systems) was each immobilized thereon. As analyte, a mixture of FGF2 (0.1 μM), heparin (0.1 μM) (manufactured by Pfizer) and aptamer (0.15 μM) was flown. Before an inhibitory test, a mixture of FGF2 and heparin was confirmed to bind to 4 kinds of receptors. […] A sensorgram showing that the aptamer shown by aptamer ID 1 inhibits binding of FGF2 and FGFR1α(IIIc), 2α(IIIc), 3(IIIc), 4 is shown in FIG. 2.
In addition, the inhibitory rate against each of the 4 kinds of receptors was determined. The inhibitory rate was determined with the maximum binding amount of the FGF2 and heparin mixture as 0, and the binding amount with an injection buffer alone as 100. The binding amount here means the RU value of the peak top of sensorgram. The inhibitory rate was calculated. […] The inhibitory rate of other aptamers was not more than 50%.
To enhance FGF2-binding activity, stability, drug deliverability and the like, the nucleic acids shown by aptamer IDs 3(1)-3(40), aptamer IDs 4 and 4(1)-4(4), aptamer ID 5 and aptamer ID 6 were chemically synthesized based on the aptamer shown in SEQ ID NO: 3. Here, the aptamer shown by aptamer ID 4 is the aptamer shown by aptamer ID 3(19) wherein one G(M) at the 5′-terminal and one C(M) at the 3′-terminal have been deleted. The aptamer shown by aptamer ID 5 is the aptamer shown by aptamer ID 3(19) wherein one G(M) has been added at the 5′-terminal and one C(M) has been added at the 3′-terminal. The aptamer shown by aptamer ID 6 is the aptamer shown by aptamer ID 3(19) wherein A(M) alone has been added at the 5′-terminal. These nucleic acids were produced by chemical synthesis.
In the case of B5, the activity is 97%. Regarding GGGAUACUAGGGCAUUAAUGUUACCAGUGUAGUCCC (ssRNA, 2'-F at U8,U16,U21,U28,U30; 2'-OH at G12,G27,G29; all others 2'-OMe; 3' idT) [aptamer ID 3(19)], the activity was found to be 93%. GGAUACUAGGGCAUUAAUGUUACCAGUGUAGUCC (ssRNA, 2'-F at U7,G11,U15,U20,U27,U29; 2'-OH at G26,G28; all others 2'-OMe; 3' idT) [aptamer ID 4(1)] came in with an activity of 93%. The molecule GGAUACUAGGGCAUUAAUGUUACCAGUGUAGUCC (ssRNA, 2'-F at U7,G11,U15,U20,G26,U27,U29; 2'-OH at G28; all others 2'-OMe; 3' idT) [aptamer ID 4(2)] came in with an activity of 94%. B1 yielded an activity of 96%. B2 registered an activity of 96%. AGGGAUACUAGGGCAUUAAUGUUACCAGUGUAGUCCC (ssRNA, 2'-F at U9,U17,U22,U29,U31; 2'-OH at G13,G28,G30; all others 2'-OMe; 3' idT) [aptamer ID 6] returned an activity of 93%.

GGGGAUACUAGGGCAUUAAUGUUACCAGUGUAGUCCCC (ssRNA, 2'-F at U9,U17,U22,U29,U31; 2'-OH at G13,G28,G30; all others 2'-OMe; 3' idT) [aptamer ID 5] came in with an activity of 94%.

Another data set has as its target T1, FGF2. Kind of data set: cell_activity; HUVEC proliferation, FGF2 0.5 nM. The following applies: tags: Peprotech. As to the method:
as §1
The molecule B5 came in with an IC50 of roughly 1 nM.
